Legend:
Experiment in all cases: Kinase Profiling Assay
Details in all cases: 100 μM
AMPKα2 (h) = AMPKα2 (h) (Homo sapiens, UniProt P54646); assay type: biochemical
Procedure: (§1) Every kinase activity measurement was conducted in duplicate.
(§2) Specifically, in these assays, a positively charged substrate is phosphorylated with a radiolabeled phosphate group from an ATP if the kinase is not inhibited by an inhibitor peptide. The positively charged substrate then is attracted to a negatively charged filter membrane, quantified with a scintillation counter, and compared to a 100% activity control.
(§3) In addition to determining the IC50 of the compound, the specificity of MK2 inhibitory peptides was assessed by examining activities of all 266 human kinases available for testing in the Millipore kinase profiling service (Table 1).

Abl (h) = Abl (h) (Homo sapiens, UniProt P00519); assay type: biochemical
Procedure: as §1, §2, §3

CHK2 (h) = target: T1, CHK2 (h) (Homo sapiens, UniProt O96017); assay type: biochemical
T1 construct: purchased Millipore
T1 sequence (O96017 whole entry): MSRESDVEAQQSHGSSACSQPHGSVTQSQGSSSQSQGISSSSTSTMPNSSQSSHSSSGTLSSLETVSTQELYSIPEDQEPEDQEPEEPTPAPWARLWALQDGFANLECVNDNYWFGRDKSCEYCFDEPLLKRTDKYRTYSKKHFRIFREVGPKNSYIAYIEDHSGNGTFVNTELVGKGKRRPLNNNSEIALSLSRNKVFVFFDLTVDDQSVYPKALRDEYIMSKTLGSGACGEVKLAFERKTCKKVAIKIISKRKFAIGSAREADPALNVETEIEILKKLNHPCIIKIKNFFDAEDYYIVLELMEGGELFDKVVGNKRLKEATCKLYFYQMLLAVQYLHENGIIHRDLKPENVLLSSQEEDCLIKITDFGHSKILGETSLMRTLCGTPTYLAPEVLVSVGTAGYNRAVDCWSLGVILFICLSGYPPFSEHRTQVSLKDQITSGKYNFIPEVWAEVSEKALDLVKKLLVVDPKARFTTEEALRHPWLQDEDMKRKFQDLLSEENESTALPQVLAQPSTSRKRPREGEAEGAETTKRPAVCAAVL
Procedure: as §1, §2, §3

CaMKIIβ (h) = target: T2, CaMKIIβ (h) (Homo sapiens, UniProt Q13554); assay type: biochemical
T2 construct: purchased Millipore
T2 sequence (Q13554 whole entry): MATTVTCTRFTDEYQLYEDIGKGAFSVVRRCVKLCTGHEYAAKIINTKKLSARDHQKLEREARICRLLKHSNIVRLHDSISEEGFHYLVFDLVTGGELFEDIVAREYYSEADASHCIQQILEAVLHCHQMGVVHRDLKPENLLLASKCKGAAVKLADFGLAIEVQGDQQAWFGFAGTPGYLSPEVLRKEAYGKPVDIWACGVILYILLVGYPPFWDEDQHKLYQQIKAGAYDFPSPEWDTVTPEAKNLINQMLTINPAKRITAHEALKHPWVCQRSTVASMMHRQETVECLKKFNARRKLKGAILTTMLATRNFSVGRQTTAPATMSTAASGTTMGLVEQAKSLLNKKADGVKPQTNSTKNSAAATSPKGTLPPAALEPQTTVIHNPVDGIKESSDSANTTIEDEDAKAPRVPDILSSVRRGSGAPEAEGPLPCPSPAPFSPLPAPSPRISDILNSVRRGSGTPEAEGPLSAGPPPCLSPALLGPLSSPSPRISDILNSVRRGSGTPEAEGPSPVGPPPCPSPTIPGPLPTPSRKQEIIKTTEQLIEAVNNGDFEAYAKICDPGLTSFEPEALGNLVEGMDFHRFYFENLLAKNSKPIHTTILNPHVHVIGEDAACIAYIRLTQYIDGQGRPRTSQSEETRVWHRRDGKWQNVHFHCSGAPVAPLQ
Procedure: as §1, §2, §3

ErbB4 (h) = ErbB4 (h) (Homo sapiens, UniProt Q15303); assay type: biochemical
Procedure: as §1, §2, §3

FGFR2 (h) = FGFR2 (h) (Homo sapiens, UniProt P21802); assay type: biochemical
Procedure: as §1, §2, §3

Fes (h) = Fes (h) (Homo sapiens, UniProt P07332); assay type: biochemical
Chain of Fes (h) (P07332 whole entry): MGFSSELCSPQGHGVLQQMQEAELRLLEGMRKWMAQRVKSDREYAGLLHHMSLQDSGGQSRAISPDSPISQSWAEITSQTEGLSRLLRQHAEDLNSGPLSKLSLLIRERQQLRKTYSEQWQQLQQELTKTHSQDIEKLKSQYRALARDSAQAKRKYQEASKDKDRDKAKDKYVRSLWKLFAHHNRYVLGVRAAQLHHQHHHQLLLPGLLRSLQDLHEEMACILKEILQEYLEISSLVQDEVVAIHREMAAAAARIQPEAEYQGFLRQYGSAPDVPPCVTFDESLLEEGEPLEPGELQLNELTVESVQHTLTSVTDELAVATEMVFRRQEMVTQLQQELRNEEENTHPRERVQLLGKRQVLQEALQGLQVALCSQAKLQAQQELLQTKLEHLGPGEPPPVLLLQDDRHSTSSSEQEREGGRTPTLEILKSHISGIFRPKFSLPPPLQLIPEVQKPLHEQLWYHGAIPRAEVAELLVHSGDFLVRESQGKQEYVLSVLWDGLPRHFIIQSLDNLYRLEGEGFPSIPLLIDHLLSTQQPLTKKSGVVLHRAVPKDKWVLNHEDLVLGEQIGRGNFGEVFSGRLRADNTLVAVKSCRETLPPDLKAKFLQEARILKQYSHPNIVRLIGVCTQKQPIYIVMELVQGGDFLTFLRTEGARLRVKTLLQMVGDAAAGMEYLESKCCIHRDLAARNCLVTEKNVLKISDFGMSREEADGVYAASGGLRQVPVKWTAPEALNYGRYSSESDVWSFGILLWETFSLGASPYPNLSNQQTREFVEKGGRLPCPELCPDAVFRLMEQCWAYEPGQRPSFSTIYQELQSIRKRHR
Procedure: as §1, §2, §3

Fgr (h) = Fgr (h) (Homo sapiens, UniProt P09769); assay type: biochemical
Procedure: as §1, §2, §3

MLK1 (h) = target: T3, MLK1 (h) (Homo sapiens, UniProt P80192); assay type: biochemical
T3 construct: purchased Millipore
T3 sequence (P80192 whole entry): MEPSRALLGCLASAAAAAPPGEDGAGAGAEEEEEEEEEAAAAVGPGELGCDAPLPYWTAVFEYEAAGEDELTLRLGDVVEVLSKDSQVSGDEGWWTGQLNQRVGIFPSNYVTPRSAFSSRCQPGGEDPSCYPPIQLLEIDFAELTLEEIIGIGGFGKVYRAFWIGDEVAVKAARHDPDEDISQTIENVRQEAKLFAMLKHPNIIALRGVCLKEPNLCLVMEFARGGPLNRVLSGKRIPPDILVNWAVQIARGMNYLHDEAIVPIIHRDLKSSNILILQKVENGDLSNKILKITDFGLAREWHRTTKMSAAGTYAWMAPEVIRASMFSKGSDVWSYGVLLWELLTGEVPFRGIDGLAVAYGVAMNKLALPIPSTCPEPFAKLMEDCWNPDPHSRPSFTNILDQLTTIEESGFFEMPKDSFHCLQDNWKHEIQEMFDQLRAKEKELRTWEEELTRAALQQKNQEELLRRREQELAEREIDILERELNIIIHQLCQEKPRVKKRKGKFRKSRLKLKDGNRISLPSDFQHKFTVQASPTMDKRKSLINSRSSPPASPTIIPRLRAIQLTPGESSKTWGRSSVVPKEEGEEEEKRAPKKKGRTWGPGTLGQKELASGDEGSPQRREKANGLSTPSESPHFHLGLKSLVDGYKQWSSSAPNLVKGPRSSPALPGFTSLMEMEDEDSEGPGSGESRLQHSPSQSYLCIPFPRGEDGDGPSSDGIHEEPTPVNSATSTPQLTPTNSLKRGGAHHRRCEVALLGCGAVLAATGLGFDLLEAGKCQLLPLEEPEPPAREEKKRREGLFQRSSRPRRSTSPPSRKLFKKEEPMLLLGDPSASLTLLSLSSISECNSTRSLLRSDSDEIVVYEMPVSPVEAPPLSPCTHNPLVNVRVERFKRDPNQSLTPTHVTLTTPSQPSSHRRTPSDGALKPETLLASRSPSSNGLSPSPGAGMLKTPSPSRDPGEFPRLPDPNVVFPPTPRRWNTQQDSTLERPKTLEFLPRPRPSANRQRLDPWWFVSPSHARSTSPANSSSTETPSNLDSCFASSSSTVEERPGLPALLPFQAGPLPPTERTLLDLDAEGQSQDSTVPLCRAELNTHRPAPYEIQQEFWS
Procedure: as §1, §2, §3

PAK5 (h) = target: T4, PAK5 (h) (Homo sapiens, UniProt Q9P286); assay type: biochemical
T4 construct: purchased Millipore
T4 sequence (Q9P286 whole entry): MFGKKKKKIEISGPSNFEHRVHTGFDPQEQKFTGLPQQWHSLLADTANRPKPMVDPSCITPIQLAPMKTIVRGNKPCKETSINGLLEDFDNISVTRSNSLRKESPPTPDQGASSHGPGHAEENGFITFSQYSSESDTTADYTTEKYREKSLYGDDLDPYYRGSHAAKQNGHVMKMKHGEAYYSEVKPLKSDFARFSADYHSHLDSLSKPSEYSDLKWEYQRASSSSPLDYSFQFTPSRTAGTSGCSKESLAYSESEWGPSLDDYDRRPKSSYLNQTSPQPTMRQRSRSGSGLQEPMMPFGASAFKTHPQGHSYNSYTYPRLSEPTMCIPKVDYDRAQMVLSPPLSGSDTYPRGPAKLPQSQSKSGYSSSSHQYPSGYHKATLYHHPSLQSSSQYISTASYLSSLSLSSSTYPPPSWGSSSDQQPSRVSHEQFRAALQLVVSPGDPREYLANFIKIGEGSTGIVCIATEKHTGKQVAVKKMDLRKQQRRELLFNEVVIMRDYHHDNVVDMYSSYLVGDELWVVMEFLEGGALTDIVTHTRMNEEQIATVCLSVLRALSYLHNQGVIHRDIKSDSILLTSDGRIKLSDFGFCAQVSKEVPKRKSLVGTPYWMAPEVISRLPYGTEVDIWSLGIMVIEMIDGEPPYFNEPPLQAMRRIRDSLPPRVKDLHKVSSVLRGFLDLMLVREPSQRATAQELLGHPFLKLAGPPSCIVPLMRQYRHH
Procedure: as §1, §2, §3

PKBγ (h) = target: T5, PKBγ (h) (Homo sapiens, UniProt Q9Y243); assay type: biochemical
T5 construct: purchased Millipore
Procedure: as §1, §2, §3

PKG1α (h) = target: T6, PKG1α (h) (Homo sapiens, UniProt Q13976); assay type: biochemical
T6 sequence (Q13976 1-671): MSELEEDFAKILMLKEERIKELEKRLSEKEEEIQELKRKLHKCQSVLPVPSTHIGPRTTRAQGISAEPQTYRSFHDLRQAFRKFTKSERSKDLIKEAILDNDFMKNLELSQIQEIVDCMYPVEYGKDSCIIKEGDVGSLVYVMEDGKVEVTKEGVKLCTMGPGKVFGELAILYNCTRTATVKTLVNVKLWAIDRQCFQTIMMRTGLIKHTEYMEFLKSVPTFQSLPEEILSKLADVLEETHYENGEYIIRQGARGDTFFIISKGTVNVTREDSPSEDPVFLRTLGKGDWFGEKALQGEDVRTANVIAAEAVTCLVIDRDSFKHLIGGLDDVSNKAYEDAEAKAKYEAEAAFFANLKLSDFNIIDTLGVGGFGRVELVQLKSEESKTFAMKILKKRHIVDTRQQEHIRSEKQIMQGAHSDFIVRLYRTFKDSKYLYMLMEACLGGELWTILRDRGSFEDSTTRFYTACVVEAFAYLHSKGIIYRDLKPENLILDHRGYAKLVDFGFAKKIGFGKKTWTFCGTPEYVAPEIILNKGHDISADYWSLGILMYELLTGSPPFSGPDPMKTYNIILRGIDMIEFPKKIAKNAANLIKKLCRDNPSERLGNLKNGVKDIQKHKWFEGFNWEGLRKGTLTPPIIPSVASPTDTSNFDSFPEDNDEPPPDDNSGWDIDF
Procedure: as §1, §2, §3

PKG1β (h) = target: T7, PKG1β (h) (Homo sapiens, UniProt Q13976); assay type: biochemical
T7 sequence (Q13976 1-686 isoform Q13976-2): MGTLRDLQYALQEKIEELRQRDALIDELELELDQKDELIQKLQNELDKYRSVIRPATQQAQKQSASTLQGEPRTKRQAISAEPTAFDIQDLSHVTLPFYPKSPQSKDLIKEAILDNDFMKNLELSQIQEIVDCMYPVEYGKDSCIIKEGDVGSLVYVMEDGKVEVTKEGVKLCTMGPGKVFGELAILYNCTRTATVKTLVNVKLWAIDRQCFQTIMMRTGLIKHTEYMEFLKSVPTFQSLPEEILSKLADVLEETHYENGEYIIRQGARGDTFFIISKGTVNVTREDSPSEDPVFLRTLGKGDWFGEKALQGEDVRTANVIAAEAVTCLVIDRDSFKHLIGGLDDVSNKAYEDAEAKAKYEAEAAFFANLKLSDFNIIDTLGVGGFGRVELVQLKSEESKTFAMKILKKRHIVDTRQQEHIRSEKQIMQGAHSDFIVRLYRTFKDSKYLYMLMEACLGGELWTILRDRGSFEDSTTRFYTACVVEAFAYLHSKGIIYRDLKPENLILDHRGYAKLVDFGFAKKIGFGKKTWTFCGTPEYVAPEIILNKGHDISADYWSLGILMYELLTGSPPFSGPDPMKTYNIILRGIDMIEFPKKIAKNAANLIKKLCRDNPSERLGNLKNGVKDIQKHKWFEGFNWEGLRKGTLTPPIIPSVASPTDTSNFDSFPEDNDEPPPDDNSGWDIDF
Procedure: as §1, §2, §3

RIPK2 (h) = RIPK2 (h) (Homo sapiens, UniProt O43353); assay type: biochemical
Chain of RIPK2 (h) (O43353 whole entry): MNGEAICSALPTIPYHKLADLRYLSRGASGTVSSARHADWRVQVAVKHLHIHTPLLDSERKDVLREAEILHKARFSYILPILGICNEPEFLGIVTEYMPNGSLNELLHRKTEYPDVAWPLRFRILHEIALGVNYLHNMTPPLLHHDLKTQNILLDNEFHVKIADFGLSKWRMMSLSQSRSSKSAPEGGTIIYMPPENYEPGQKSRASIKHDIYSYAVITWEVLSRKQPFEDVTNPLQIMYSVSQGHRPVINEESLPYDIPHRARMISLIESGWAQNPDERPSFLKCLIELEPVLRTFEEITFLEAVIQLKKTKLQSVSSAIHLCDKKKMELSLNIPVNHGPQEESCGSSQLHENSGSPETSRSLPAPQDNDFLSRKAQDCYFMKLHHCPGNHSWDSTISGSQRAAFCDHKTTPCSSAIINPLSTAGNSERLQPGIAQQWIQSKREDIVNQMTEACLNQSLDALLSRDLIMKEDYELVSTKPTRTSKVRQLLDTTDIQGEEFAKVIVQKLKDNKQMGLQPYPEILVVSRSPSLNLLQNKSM
Procedure: as §1, §2, §3

Rsk1 (h) = Rsk1 (h) (Homo sapiens, UniProt Q15418); assay type: biochemical
Procedure: as §1, §2, §3

SAPK2a (h) = SAPK2a (h) (Homo sapiens, UniProt Q16539); assay type: biochemical
Procedure: as §1, §2, §3

ZIPK (h) = ZIPK (h) (Homo sapiens, UniProt O43293); assay type: biochemical
Procedure: as §1, §2, §3

CaMKI (h) = assay type: biochemical, human
Procedure: as §1, §2, §3

MLCK (h) = assay type: biochemical, human
Procedure: as §1, §2, §3

SGK (h) = assay type: biochemical, human
Procedure: as §1, §2, §3

BTK (h) = BTK (h) (Homo sapiens, UniProt Q06187); assay type: biochemical
Chain of BTK (h) (Q06187 whole entry): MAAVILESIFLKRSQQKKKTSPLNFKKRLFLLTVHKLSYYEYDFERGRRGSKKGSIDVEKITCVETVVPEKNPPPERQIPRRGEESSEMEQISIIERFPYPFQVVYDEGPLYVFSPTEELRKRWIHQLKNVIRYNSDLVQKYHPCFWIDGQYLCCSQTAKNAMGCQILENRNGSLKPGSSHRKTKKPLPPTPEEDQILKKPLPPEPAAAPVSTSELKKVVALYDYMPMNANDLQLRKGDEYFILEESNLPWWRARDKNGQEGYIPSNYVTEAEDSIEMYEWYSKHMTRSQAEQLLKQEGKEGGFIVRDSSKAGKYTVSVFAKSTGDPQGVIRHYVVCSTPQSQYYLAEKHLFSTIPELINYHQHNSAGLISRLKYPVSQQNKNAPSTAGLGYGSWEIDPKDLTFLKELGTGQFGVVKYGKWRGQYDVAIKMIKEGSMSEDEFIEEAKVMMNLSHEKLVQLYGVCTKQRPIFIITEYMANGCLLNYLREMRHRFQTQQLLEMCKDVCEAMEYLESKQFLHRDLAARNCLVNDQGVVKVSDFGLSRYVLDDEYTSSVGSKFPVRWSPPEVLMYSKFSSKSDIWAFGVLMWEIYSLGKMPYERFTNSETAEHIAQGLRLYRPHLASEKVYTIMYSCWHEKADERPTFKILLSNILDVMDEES
Procedure: as §1, §2, §3

Sequence: FAKLAARLYRKALARQLGVAA [MMI-0300]
- % activity (AMPKα2 (h)): 54%
- % activity (Abl (h)): 69%
- % activity (CHK2 (h)): 66%
- % activity (CaMKIIβ (h)): 2%
- % activity (ErbB4 (h)): 40%
- % activity (FGFR2 (h)): 14%
- % activity (Fes (h)): 20%
- % activity (Fgr (h)): 60%
- % activity (MLK1 (h)): 40%
- % activity (PAK5 (h)): 110%
- % activity (PKBγ (h)): 20%
- % activity (PKG1α (h)): 64%
- % activity (PKG1β (h)): 50%
- % activity (RIPK2 (h)): 97%
- % activity (Rsk1 (h)): 46%
- % activity (SAPK2a (h)): 90%
- % activity (ZIPK (h)): 28%
- % activity (CaMKI (h)): 1%
- % activity (MLCK (h)): 2%
- % activity (SGK (h)): 48%

Sequence: HRRIKAWLKKIKALARQLGVAA (Mammalian) [MMI-0500]
- % activity (AMPKα2 (h)): 9%
- % activity (Abl (h)): 16%
- % activity (BTK (h)): 18%
- % activity (CHK2 (h)): 13%
- % activity (CaMKIIβ (h)): 3%
- % activity (ErbB4 (h)): 2%
- % activity (FGFR2 (h)): 12%
- % activity (Fes (h)): 23%
- % activity (MLK1 (h)): 43%
- % activity (PAK5 (h)): 125%
- % activity (PKBγ (h)): 20%
- % activity (PKG1α (h)): 25%
- % activity (PKG1β (h)): 24%
- % activity (RIPK2 (h)): 30%
- % activity (Rsk1 (h)): 34%
- % activity (SAPK2a (h)): 52%
- % activity (ZIPK (h)): 1%
- % activity (CaMKI (h)): −1%
- % activity (MLCK (h)): 0%
- % activity (SGK (h)): 2%

Sequence: KAFAKLAARLYRKALARQLGVAA [MMI-0400]
- % activity (AMPKα2 (h)): 58%
- % activity (Abl (h)): 84%
- % activity (BTK (h)): 94%
- % activity (CHK2 (h)): 54%
- % activity (CaMKIIβ (h)): 11%
- % activity (ErbB4 (h)): 0%
- % activity (FGFR2 (h)): 18%
- % activity (Fes (h)): 16%
- % activity (Fgr (h)): 47%
- % activity (MLK1 (h)): 33%
- % activity (PKBγ (h)): 41%
- % activity (PKG1α (h)): 58%
- % activity (PKG1β (h)): 53%
- % activity (RIPK2 (h)): 98%
- % activity (Rsk1 (h)): 54%
- % activity (SAPK2a (h)): 85%
- % activity (ZIPK (h)): 13%
- % activity (CaMKI (h)): 0%
- % activity (MLCK (h)): 1%
- % activity (SGK (h)): 54%

Sequence: YARAAARQARAKALNRQLGVA (Mammalian) [MMI-0200]
- % activity (AMPKα2 (h)): 88%
- % activity (BTK (h)): 100%
- % activity (CaMKIIβ (h)): 53%
- % activity (ErbB4 (h)): 82%
- % activity (FGFR2 (h)): 73%
- % activity (Fes (h)): 74%
- % activity (Fgr (h)): 71%
- % activity (MLK1 (h)): 84%
- % activity (PAK5 (h)): 100%
- % activity (PKG1α (h)): 70%
- % activity (PKG1β (h)): 57%
- % activity (RIPK2 (h)): 98%
- % activity (ZIPK (h)): 67%
- % activity (CaMKI (h)): 21%
- % activity (MLCK (h)): 103%
- % activity (SGK (h)): 115%
